Assay: soluble on expression in E. coli; label from the status in PepcDB or PDB records

Sequence	soluble on expression in E. coli
METFILSSDSDDDSGPPPSKRRTIEGIPRSFSGDKKIRFSFGASNMSQDTTQEIIPEDTDTVPLTIPSTPALSGKFDSKTPKSVRRRSVSMSCFTPIVETINQPPTNQACSSFLQKEYNFHDLSSDEEGGDGGAGCSKDEDKIIEDNLNLRALLSPEKKKRKEKIEEVQNEFYGVYCLISRSDRPCYKNRCYIGYTVDPNRRIMQHNGGRDKGGAKKTDSRGPWDMVCVVHGFPNHVAALHFEWAWQNPLVSKSLKEKQLRKERKETPFAFQLRIACELMNSSAFCRFALTFRWLITTEELPFPTSCVPPDHTKLRFGKVKKEMSLVPSKREDYLEMGECRICGKDIEKLWSLVRCISATCPSHFHSKCLSENGLKLKNEHVDHVYPLKANCPTCGQFYLWGDIIREQRRIIKISTKCAEEFQNMVVRKELPHREISPISSKK	not soluble
MEERNHENTLEKDLEAVGQEAQALEERLKAAEEELKGLKDKYLRLLADFDNYRKRMEEELKAREREGVLKALRALLPVLDDLDRALEFAEASPESIRQGVRAIRDGFFRILAGLGVEEVPGEGEAFDPRYHEAVGLLPGEPGKVAKVFQRGFRMGEALVRPARVAVGEEKREEADLE	soluble
MAHHHHHHMAVSQLLEMKLITRPRANLTQENVNAMVEFDYELAKKAQIAVDNNLPVNFFDLEYIDKPEYLAQLLEEKNILEKTREEVLKREKGNYKTPEILKNYKRVEVPREWRQELEIDEKILKAQPGLKENIELQKIMHNYVQSKFKSKVPGQPQKKHVKG	soluble
MNLHQTVEHEAAAAFAAAGIAGSPVVLQPTKNAEHGDFQINGVMGAAKKAKQNPRELAQKVADALAGNAVIESAEVAGPGFINLRLRHEFLAQNIHAALNDARF	not soluble
MATVNKQAIAAAFGRAAAHYEQHADLQRQSADALLAMLPQRKYTHVLDAGCGPGWMSRHWRERHAQVTALDLSPPMLVQARQKDAADHYLAGDIESLPLATATFDLAWSNLAVQWCGNLSTALRELYRVVRPKGVVAFTTLVQGSLPELHQAWQAVDERPHANRFLPPDEIEQSLNGVHYQHHIQPITLWFDDALSAMRSLKGIGATHLHEGRDPRILTRSQLQRLQLAWPQQQGRYPLTYHLFLGVIARE	not soluble
THGAQHANPVVSGSVSPRPAPAKEQPSVAPSQSSVPPQPSIGEQRRQPETTAPTITEDKPEQTKVVPPTRPMATSTVGSEGRFTLRGIRNKQEQLQNNIQEVRTEMTESFDEEQLQLAWIEFAETKLSEEIHLKETMANCLPKLRPGTSAFEVEVLNSRQEEEINNVSARLLSFLADKLCNTTIRMNVRVSESTSLNRVPVSLDEKIERLNQENPLFDELRMRLGLSLV	not soluble
MNVLFTSVPQEDVPFYQEALKDLSLKIYTTDVSKVPENELKKAELISVFVYDKLTEELLSKMPRLKLIHTRSVGFDHIDLDYCKKKGILVTHIPAYSPESVAEHTFAMILTLVKRLKRIEDRVKKLNFSQDSEILARELNRLTLGVIGTGRIGSRVAMYGLAFGMKVLCYDVVKREDLKEKGCVYTSLDELLKESDVISLHVPYTKETHHMINEERISLMKDGVYLINTARGKVVDTDALYRAYQRGKFSGLGLDVFEDEEILILKKYTEGKATDKNLKILELACKDNVIITPHIAYYTDKSLERIREETVKVVKAFVKGDLEQIKGNFVVGPS	soluble
MGHHHHHHSHDRVNGVAKEYVIYGYGEPLLYPDFFKRIEGFDGKVVISTNGMLDSDILDLADKVGVSIDVNDKFRKGLEVEKALEVLRKLGERGIAEVVVTKDNLELLPAFFERIAEHGSGMLATNVVASNPAIYEQGVYFECSRITVEKVLGLDESILVEAIKDCSRGGGEALRRYKHLLKEVYSKGYSINLLAIFGRKGRVETAFKA	soluble
MSNENKTIHDFELNLICDFFSNMERQGPGSPEVTLKALSFIDNLTEKSLIADIGCGTGGQTMVLAGHVTGQVTGLDFLSGFIDIFNRNARQSGLQNRVTGIVGSMDDLPFRNEELDLIWSEGAIYNIGFERGLNEWRKYLKKGGYLAVSECSWFTDERPAEINDFWMDAYPEIDTIPNQVAKIHKAGYLPVATFILPENCWTDHYFTPKVAAQKIFLTKYAGNKIAEEFSMLQSIEEELYHKYKEYYGYTFFIAKKIRLLEHHHHHH	soluble
MIIGVLAIQGDVEEHEEAIKKAGYEAKKVKRVEDLEGIDALIIPGGESTAIGKLMKKYGLLEKIKNSNLPILGTCAGMVLLSKGTGINQILLELMDITVKRNAYGRQVDSFEKEIEFKDLGKVYGVFIRAPVVDKILSDDVEVIARDGDKIVGVKQGKYMALSFHPELSEDGYKVYKYFVENCVKK	soluble
MNQIWLKVCAASDMQPGTIRRVNRVGAAPLAVYRVGDQFYATEDTCTHGIASLSEGTLDGDVIECPFHGGAFNVCTGMPASSPCTVPLGVFEVEVKEGEVYVAGEKKLEHHHHHH	soluble
MGSDKIHHHHHHMTKDYVIEMRNITKIFGEFVANDHINLNVRRGEIHALLGENGAGKSTLMNMLAGLLEPTSGEIVINGQSVKIDSPSKAAQLGIGMVHQHFMLVDAFTVAENIILGSETTKGGVIDLKKAIAEIKELSAKYGLEVDPTAKVADISVGAQQRVEILKTLYRGADLLIFDEPTAVLTPAEIAELLKIMKALVEEGKSIILITHKLDEIRAVADSVTVIRRGKSIETVAVEGATNQDLAEWMVGRSVSFKTEKVEASPKEVILSIKDLVVNENRGIPAVKGLSLDVRAGEVVGIAGIDGNGQSELIQAITGLRKVKSGSITIKGEEVVGKTPRKITEMQVSHVPEDRHRDGLVLPMTVAENFALQTYYKEPISKNGILNYNIINEKARALMEEFDVRGASELVPIKALSGGNQQKAIIAREIDRNPDLFIVSQPTRGLDVGAIEYIRKRLIAERDKGKAVLVVSFELDEILDVSDRIAVIHDGVIHGIVEPAKTNKQELGVLMAGGHIEKGEEHA	not soluble
MFSFNMFDHPIPRVFQNRFSTQYRCFSVSMLAGPNDRSDVEKGGKIIMPPSALDQLSRLNITYPMLFKLTNKNSDRMTHCGVLEFVADEGICYLPHWMMQNLLLEEGGLVQVESVNLQVATYSKFQPQSPDFLDITNPKAVLENALRNFACLTTGDVIAINYNEKIYELRVMETKPDKAVSIIECDMNVDFDAPLGYKEPERQVQHEESTEGEADHSGYAGELGFRAFSGSGNRLDGKKKGVEPSPSPIKPGDIKRGIPNYEFKLGKITFIRNSRPLVKKVEEDEAGGRFVAFSGEGQSLRKKGRKP	soluble
PTLLTARLRWTDKVTLLADPPDKAMGQRSGPWMGEAITALLRAAEREVRLITPYFVPGNDGCDLLTELAQRGVRLSIMTNALSVTDMVLVHGAYRHYRLPLLKAGAELYEFGPPPRPCGRRDLLHTKVFLIDGRQAVVGSLNFDLRSAFMNTELGVLFEEPDLFAELEAMFDRQSAPDEAHRLSLEKGRLRWSVTEEGRAALARFEPDSPPALRAVSWVVGHLPIQ	not soluble
MTRAERKRQHINHALSIGQKRETGLDDITFVHVSLPDLALEQVDISTKIGELSSSSPIFINAMTGGGGKLTYEINKSLARAASQAGIPLAVGSQMSALKDPSERLSYEIVRKENPNGLIFANLGSEATAAQAKEAVEMIGANALQIHLNVIQEIVMPEGDRSFSGALKRIEQICSRVSVPVIVKEVGFGMSKASAGKLYEAGAAAVDIGGYGGTNFSKIENLRRQRQISFFNSWGISTAASLAEIRSEFPASTMIASGGLQDALDVAKAIALGASCTGMAGHFLKALTDSGEEGLLEEIQLILEELKLIMTVLGARTIADLQKAPLVIKGETHHWLTERGVNTSSYSVR	soluble
MGSDKIHHHHHHMPLLIDIRKLTLITRLIQDGAEQVADSLATLAGVDAAVEIKSLSFVQPEDIATEMGGGTIYSARVRLTEPPYGVFLMTFETETAAEIAELMTGSSVEDGFTQLHESALQEMCNILTSGFIDGIANTLNATINMGTPTVVQDDATEIADKALSHVRRDSLTIVLDSLVDIKESDVAFSLRIFLIPDPGSFVHLIDQLDYDTDRETHISADTDAVKELDMSGDADALDAFDSSK	not soluble
MNQVEMTEFPVGKPQEALYGVASTPDGALWFTLAKGNAIGRLSPDGAVSRFPLPHADGQPTTITCGPDGRPWFTLSSANAIGRLAPDGALRMFELPRPASRPFGIAGGHDGCLWFAEMAGDRIGRITIDGDIEEYDLPVKGGYPSCMAAGRDGLMWFTLNQAGAVGSISATAAPRIFPLGAADAAPVGIASDAQGALWIAQAGNGAIARFDAGGRITEFPLHSRAARPHAIAADAAGNLWFTEWGANRIGRISEAGDLAGYELAAPGSEPHGIAIDPHGCVWAALETGRLVRLQASPRDLEHHHHHH	not soluble
MTYVLAESPEFYQDNVTDYTGQISSSDITNIQAAIDDVKASEQKVIFVVFLSSFDGVDPETWTQQALQANGGGNVLIYALAPEERQYGIQGGTQWTDAELDAANNAAFQALSQEDWAGSALALAESVGSSSSSSLEHHHHHH	not soluble
MTDGPIKVNSEIGALKTVLLKRPGKELENLVPDYLDGLLFDDIPYLEVAQKEHDHFAQVLREEGVEVLYLEKLAAESIENPQVRSEFIDDVLAESKKTILGHEEEIKTLFATLSNQELVDKIMSGVRKEEINPKCTHLVEYMDDKYPFYLDPMPNLYFTRDPQASIGHGITINRMFWRARRRESIFIQYIVKHHPRFKDANIPIWLDRDCPFNIEGGDELVLSKDVLAIGVSERTSAQAIEKLARRIFENPQATFKKVVAIEIPTSRTFMHLDTVFTMIDYDKFTMHSAILKAEGNMNIFIIEYDDVNKDIAIKQSSHLKDTLEDVLGIDDIQFIPTGNGDVIDGAREQWNDGSNTLCIRPGVVVTYDRNYVSNDLLRQKGIKVIEISGSELVRGRGGPRCMSQPLFREDI	not soluble
MSSSGVYTCNSCVLTFDSSDEQRAHMKSDWHRYNLKRRVAQLPPISFETFDSKVSAAAASTSKSAEKEKPVTKKELKRREKQALLEKKKKLLEIARANMLENMQKSQEGNTPDLSKLSLQENEENKEKEEPKKEEPEQLTEEEMAERVMQENVRNRVDIPLEQCLFCEHNKHFKDVEENLEHMFRTHGFYIPEQKYLVDKIGLVKYMSEKIGLGNICIVCNYQGRTLTAVRQHMLAKRHCKIPYESEDERLEISEFYDFTSSYANFNSNTTPDNEDDWEDVGSDEAGSDDEDLPQEYLYNDGIELHLPTGIKVGHRSLQRYYKQDLKPEVILTEGQGTLVAAETRSFLPAFDKKGVQTQQRVWQTERFDKKRLDKRSAKFVNNQPHYRDQLLQ	soluble
ILTENTPYFEQLSVPQRSVGRIIGRGGETIRSICKASGAKITCDKESEGTLLLSRLIKISGTQKEVAAAKHLILEKVSEDEELRKRIAHSA	soluble
MAGDPMAHITRFEAPWFLMISKKQYKWTVRPNAGPHSIEKSIPLAVVIRDYLKLAGTIREAKHIIFDGKVLVDGKVRKDYKYPVGLMDIVSIPSADLYFRVLPDNVRFMRFSKISADEARYKYVRIINKTTIKEGRIQLNLEDGRNILVDKETAKNFKTLMTLKIELPSQQILDSFTISERSYAIFVGGRNVGIHGIVKNINLSKFKSRKYSVITLESRDGNTYQTNIMNVMSIGREKSDLRVDLEHHHHHH	soluble
MAKGYWIAQVDVRDSERYKDYVSTAKPAFERFGANFLARGGSVTELEGTARARNVVIEFPSVQHAIDCYNSPEYQAAAKIRQEVADAEMMIVEGI	soluble
MAHHHHHHMSQEEILQQTTGPSVPGKGVIVDDGTMEDIIDKLRILRYEKDFCPRVKPPFKPLSKYYFSGPSSIDNPNAQFHYFTSLCSWLMGLAGHNFEPPGQFDDPNATSTNILGELRAMNISAPNLAPNRIRQGNGEAVLTILSVLSDHALLKKGFTVRSVDYTNVEKYDELDGVTDADDDNGIGEEVEDNVMIESDDEEELYVRATGERLVKEDAGVPLESEINAEEWNLEVERVGPLLQVRSDALQDWRSRIESAGVLLRAVEKMYPEVKADASTCGG	not soluble
